Test results taken from US20240262905A1 (PANDION OPERATIONS, published 2024).
Each block holds one binder with its values, some of them ahead of it.

Legend:
Insulin = target: T1, Insulin; experiment: ELISA, plate coated with insulin 5 ug/mL, test article at 100 nM, anti-human Fc-HRP detection
T1 construct: Plate coat in the polyreactivity ELISA

human DSG-3 [1] = target: T2, human DSG-3 (human, UniProt P32926 50-615, limits assumed); experiment: bridging ELISA, plate coated with hDSG-3, test article at 1 nM, then his-tagged hCD25 1 ug/mL, anti-His-HRP detection
T2 construct: Soluble analyte (Octet) and plate coat (ELISA); also called hDSG-3
T2 sequence (looked up): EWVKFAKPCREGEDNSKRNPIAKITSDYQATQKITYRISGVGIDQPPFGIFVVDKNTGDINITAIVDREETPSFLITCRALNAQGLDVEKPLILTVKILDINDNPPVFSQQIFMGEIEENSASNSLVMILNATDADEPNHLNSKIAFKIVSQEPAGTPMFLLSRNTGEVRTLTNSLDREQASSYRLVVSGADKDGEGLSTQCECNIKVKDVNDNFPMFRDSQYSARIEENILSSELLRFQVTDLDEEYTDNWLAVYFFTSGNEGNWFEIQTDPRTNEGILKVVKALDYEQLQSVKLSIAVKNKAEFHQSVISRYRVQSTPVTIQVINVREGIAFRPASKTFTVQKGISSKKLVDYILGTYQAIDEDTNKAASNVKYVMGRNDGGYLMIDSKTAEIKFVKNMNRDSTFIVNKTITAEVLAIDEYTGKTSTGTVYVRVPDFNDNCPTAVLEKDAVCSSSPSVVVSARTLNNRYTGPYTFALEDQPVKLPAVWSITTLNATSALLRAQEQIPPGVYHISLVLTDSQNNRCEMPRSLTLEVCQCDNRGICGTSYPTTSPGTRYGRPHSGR

desmoglein-4 = target: T3, desmoglein-4 (Homo sapiens (Human), UniProt Q86SJ6 50-631); experiment: BLI (Octet), test article captured on anti-human Fc biosensors, desmoglein as analyte, 1:1 global fit
T3 construct: also called DSG-4
T3 sequence: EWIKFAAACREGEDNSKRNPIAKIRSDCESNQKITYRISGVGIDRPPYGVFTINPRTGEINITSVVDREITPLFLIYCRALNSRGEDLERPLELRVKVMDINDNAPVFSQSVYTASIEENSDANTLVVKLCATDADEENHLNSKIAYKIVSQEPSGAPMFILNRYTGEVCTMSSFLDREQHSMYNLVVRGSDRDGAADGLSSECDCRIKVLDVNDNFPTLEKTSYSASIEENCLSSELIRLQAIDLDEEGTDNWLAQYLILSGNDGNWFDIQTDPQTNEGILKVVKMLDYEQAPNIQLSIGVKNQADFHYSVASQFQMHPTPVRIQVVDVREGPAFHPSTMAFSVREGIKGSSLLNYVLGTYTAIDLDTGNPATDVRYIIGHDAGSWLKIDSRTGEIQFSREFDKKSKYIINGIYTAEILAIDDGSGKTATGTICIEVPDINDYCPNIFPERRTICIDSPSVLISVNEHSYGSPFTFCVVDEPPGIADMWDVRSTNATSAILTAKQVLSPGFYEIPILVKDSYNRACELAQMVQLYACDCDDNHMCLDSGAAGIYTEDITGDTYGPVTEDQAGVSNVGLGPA

desmoglein-2 = target: T4, desmoglein-2 (Homo sapiens (Human), UniProt Q14126 50-609); experiment: as above
T4 construct: also called DSG-2
T4 sequence: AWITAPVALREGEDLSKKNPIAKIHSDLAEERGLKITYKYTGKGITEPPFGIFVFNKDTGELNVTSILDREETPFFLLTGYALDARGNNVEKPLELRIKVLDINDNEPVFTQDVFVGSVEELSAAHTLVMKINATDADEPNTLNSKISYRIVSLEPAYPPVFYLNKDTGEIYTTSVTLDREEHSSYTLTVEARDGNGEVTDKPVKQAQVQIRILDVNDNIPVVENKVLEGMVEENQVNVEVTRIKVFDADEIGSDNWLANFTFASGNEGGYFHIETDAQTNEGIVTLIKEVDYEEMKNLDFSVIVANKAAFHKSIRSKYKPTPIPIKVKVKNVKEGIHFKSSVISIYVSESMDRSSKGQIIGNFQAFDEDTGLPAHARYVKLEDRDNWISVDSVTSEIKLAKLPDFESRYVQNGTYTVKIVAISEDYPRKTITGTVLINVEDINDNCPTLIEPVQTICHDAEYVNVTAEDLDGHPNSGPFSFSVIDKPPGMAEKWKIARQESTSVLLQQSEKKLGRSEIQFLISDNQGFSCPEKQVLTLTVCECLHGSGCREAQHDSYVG

desmoglein-1 = target: T5, desmoglein-1 (Homo sapiens (Human), UniProt Q02413 50-548); experiment: as above
T5 construct: also called DSG-1
T5 sequence: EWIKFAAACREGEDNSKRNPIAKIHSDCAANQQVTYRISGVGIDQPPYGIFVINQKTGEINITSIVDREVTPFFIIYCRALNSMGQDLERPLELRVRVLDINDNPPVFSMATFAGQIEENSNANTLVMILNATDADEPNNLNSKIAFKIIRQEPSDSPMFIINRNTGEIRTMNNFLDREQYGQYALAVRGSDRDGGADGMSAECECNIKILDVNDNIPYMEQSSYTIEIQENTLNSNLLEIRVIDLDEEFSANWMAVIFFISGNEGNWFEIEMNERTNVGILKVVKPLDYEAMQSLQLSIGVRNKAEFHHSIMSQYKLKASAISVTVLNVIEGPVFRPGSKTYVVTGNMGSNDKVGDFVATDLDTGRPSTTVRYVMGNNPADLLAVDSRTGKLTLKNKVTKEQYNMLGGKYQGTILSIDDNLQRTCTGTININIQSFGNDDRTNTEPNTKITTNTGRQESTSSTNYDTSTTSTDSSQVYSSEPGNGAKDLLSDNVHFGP

human DSG-3 [2] = target: T2, human DSG-3; experiment: as above
human DSG-3 [3] = target: T2, human DSG-3; experiment: bridging ELISA, plate coated with hDSG-3, test article at 100 nM, then his-tagged hCD25 1 ug/mL, anti-His-HRP detection
human DSG-3 [4] = target: T2, human DSG-3; experiment: bridging ELISA, plate coated with hDSG-3, test article at 10 nM, then his-tagged hCD25 1 ug/mL, anti-His-HRP detection
human CD25 = target: T6, human CD25 (human, UniProt P01589 22-213, limits assumed); experiment: BLI (Octet), test article captured on anti-human Fc biosensors, 1:1 global fit (method text names desmogleins as analyte; result told for human CD25)
T6 construct: construct not described
T6 sequence (looked up): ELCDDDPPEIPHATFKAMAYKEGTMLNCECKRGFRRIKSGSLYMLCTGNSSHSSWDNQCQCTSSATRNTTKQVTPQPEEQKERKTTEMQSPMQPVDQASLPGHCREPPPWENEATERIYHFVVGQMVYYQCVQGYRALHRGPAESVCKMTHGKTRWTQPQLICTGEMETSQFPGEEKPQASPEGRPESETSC

Insulin polyreactivity score (Insulin): 2.2
absorbance (OD450 nm) (human DSG-3 [1]): 0.31
Kd (desmoglein-4): 10 nM
Kd (desmoglein-2): 4.2 nM
Kd (desmoglein-1): 13 nM
Kd (human DSG-3 [2]): 19 nM
absorbance (OD450 nm) (human DSG-3 [3]): 1.3
absorbance (OD450 nm) (human DSG-3 [4]): 0.78
B1: IL2DSGAB1 (other)
heavy: QVQLQESGPGPVKPSGTLSLTCGVSGGSISSNHWWTWVRQPPGKGLEWIGEIYHNGSTFLNPSLKSRVTISVDKSNNQFSLKLTSVTAADTAVYYCARGWHRTGFRGYPSHWYFDLWGRGTLVSVSSASTKGPSVFPLAPSSKSTSGGTAALGCLVKDYFPEPVTVSWNSGALTSGVHTFPAVLQSSGLYSLSSVVTVPSSSLGTQTYICNVNHKPSNTKVDKKVEPKSCDKTHTCPPCPAPEAAGAPSVFLFPPKPKDTLMISRTPEVTCVVVDVSHEDPEVKFNWYVDGVEVHNAKTKPREEQYNSTYRVVSVLTVLHQDWLNGKEYKCKVSNKALPAPIEKTISKAKGQPREPQVYTLPPSREEMTKNQVSLTCLVKGFYPSDIAVEWESNGQPENNYKTTPPVLDSDGSFFLYSKLTVDKSRWQQGNVFSCSVMHEALHNHYTQKSLSLSPGGGGGSAPTSSSTKKTQLQLEHLLLDLQMILNGINNYKNPKLTRMLTFKFYMPKKATELKHLQCLEEELKPLEEALNLAPSKNFHLRPRDLISDINVIVLELKGSETTFMCEYADETATIVEFINRWITFSQSIISTLT
light: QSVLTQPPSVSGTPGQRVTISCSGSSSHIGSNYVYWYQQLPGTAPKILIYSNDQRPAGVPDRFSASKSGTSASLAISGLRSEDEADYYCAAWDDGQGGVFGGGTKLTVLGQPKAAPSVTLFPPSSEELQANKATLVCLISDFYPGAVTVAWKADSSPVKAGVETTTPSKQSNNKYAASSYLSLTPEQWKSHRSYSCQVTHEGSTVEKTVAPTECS
notes: SD1 anti-desmoglein human IgG1 with the IL-2 mutein fused to the C-terminus of the heavy chain; copies: 2 + 2

absorbance (OD450 nm) (human DSG-3 [1]): 0.27
absorbance (OD450 nm) (human DSG-3 [3]): 0.965
absorbance (OD450 nm) (human DSG-3 [4]): 0.483
Kd (human CD25): 3.4 nM
B2: IL2DSGAB5 (other)
heavy: QVQLQESGPGPVKPSGTLSLTCGVSGGSISSNHWWTWVRQPPGKGLEWIGEIYHNGSTFLNPSLKSRVTISVDKSNNQFSLKLTSVTAADTAVYYCARGWHRTGFRGYPSHWYFDLWGRGTLVSVSSASTKGPSVFPLAPSSKSTSGGTAALGCLVKDYFPEPVTVSWNSGALTSGVHTFPAVLQSSGLYSLSSVVTVPSSSLGTQTYICNVNHKPSNTKVDKKVEPKSCDKTHTCPPCPAPEAAGAPSVFLFPPKPKDTLMISRTPEVTCVVVDVSHEDPEVKFNWYVDGVEVHNAKTKPREEQYNSTYRVVSVLTVLHQDWLNGKEYKCKVSNKALPAPIEKTISKAKGQPREPQVYTLPPSREEMTKNQVSLTCLVKGFYPSDIAVEWESNGQPENNYKTTPPVLDSDGSFFLYSKLTVDKSRWQQGNVFSCSVMHEALHNHYTQKSLSLSPG
light: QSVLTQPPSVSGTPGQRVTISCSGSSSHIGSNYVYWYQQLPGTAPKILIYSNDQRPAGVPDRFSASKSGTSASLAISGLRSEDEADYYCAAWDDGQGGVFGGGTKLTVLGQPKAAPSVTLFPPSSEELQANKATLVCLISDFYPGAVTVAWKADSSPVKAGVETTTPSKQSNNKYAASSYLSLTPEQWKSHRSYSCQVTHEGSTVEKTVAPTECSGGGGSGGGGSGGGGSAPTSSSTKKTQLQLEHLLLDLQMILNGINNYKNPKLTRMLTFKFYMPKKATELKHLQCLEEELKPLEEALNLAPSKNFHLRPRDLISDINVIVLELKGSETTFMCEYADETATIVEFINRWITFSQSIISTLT
notes: SD1 anti-desmoglein human IgG1 with the IL-2 mutein fused to the C-terminus of the light chain; also called TL2DSGAB5

absorbance (OD450 nm) (human DSG-3 [1]): 0.29
absorbance (OD450 nm) (human DSG-3 [3]): 1
absorbance (OD450 nm) (human DSG-3 [4]): 0.41
Kd (human CD25): 3.5 nM
B3: IL2DSGAB8 (other)
heavy: QVQLVQSGGGVVQSGRSLRLSCAASGFTFSDYAMHWVRQAPGKGLEWVAVISHGGTKKYTGDSVKGRFIISRDNSKNTVFLQMNSLRVEDTAVYYCARDRVEGYVWGGTFDHWGQGTPVTVSSASTKGPSVFPLAPSSKSTSGGTAALGCLVKDYFPEPVTVSWNSGALTSGVHTFPAVLQSSGLYSLSSVVTVPSSSLGTQTYICNVNHKPSNTKVDKKVEPKSCDKTHTCPPCPAPEAAGAPSVFLFPPKPKDTLMISRTPEVTCVVVDVSHEDPEVKFNWYVDGVEVHNAKTKPREEQYNSTYRVVSVLTVLHQDWLNGKEYKCKVSNKALPAPIEKTISKAKGQPREPQVYTLPPSREEMTKNQVSLTCLVKGFYPSDIAVEWESNGQPENNYKTTPPVLDSDGSFFLYSKLTVDKSRWQQGNVFSCSVMHEALHNHYTQKSLSLSPG
light: ELVLTQPPSVPVAPGQTANISCGGNNIGRQTVHWYQQKPGQAPVLVVFDDSDRPAGIPERFSGSNSGNTATLTISRVEAGDEADYYCQVWDSSSDHVVFGGGTQLTVLGQPKAAPSVTLFPPSSEELQANKATLVCLISDFYPGAVTVAWKADSSPVKAGVETTTPSKQSNNKYAASSYLSLTPEQWKSHRSYSCQVTHEGSTVEKTVAPTECSAEEEKAEEEKAEEEKAEEEKAPTSSSTKKTQLQLEHLLLDLQMILNGINNYKNPKLTRMLTFKFYMPKKATELKHLQCLEEELKPLEEALNLAPSKNFHLRPRDLISDINVIVLELKGSETTFMCEYADETATIVEFINRWITFSQSIISTLT
